Key:
[1] = molecular target: cell surface beta1,4-galactosyltransferase I (GalT), mouse, endogenous (UniProt P15535)
[2] = molecular target: cyclin-dependent kinase inhibitor p57(kip2) (UniProt P49919)

Q: What does the source list for His tagged GTAP?
A: in vitro ubiquitination of immunoprecipitated GalT [1]: Surprisingly GTAP had no effect on immunoprecipitated GalT in an in vitro ubiquitin system; in vitro ubiquitination of p57 with biotinylated ubiquitin [2]: GTAP increased the ubiquitination of p57 only in the presence of E1
